The record followed here is patent publication US20220298260A1 (MYTHIC THERAPEUTICS, published 2022).

Sequences and labels used below:
B1: MYT0613 (antibody, V domains shown)
VH: QVQLVQSGAEVVKPGASVKISCKASGYTFTGYFMNWVKQSPGQSLEWIGRIHHYDGDTFYNQKFQGKATLTVDKSSNTAHMELLSLTSEDFAVYYCTRYDGSRAMDYWGQGTTVTVSS
VL: DIVLTQSPLSLAVSLGQPAIISCKASQSVSFAGTSLMHWYHQKPGQQPRLLIYRASNLEAGVPDRFSGSGSKTDFTLTISPVEAEDAATYYCQQSREYPYTFGGGTKLEIK
notes: IgG
B2: MYT0631 (antibody, V domains shown)
VH: QVQLVQSGAEVVKPGASVKISCKASGYTFTGYFMNWVKQSPGQSLEWIGRIHPYDGDTFYNQKFQGKATLTVDKSSNTAHMELLSLTSEDFAVYYCTRYDHSRAMDYWGQGTTVTVSS
VL: DIVLTQSPLSLAVSLGQPAIISCKASQSVSFAGTSLMHWYHQKPGQQPRLLIYRASNLEAGVPDRFSGSGSKTDFTLTISPVEAEDAATYYCQQSREYPYTFGGGTKLEIK
notes: IgG
B3: MYT0634 (antibody, V domains shown)
VH: QVQLVQSGAEVVKPGASVKISCKASGYTFTGYFMNWVKQSPGQSLEWIGRIHPYDGDTFYNQKFQGKATLTVDKSSNTAHMELLSLTSEDFAVYYCTRYDGSRHMDYWGQGTTVTVSS
VL: DIVLTQSPLSLAVSLGQPAIISCKASQSVSFAGTSLMHWYHQKPGQQPRLLIYRASNLEAGVPDRFSGSGSKTDFTLTISPVEAEDAATYYCQQSREYPYTFGGGTKLEIK
notes: IgG
B4: MYT2244 (antibody, V domains shown)
VH: EVQLVESGGGLVQPGGSLRLSCAASGFNIRTQSIHWVRQAPGKGLEWIGDIFPIDGITHYADSVKGRFTISADTSKNTAYLQMNSLRAEDTAVYYCARGSWSWPSGMDYYLDYWGQGTLVTVSS
VL: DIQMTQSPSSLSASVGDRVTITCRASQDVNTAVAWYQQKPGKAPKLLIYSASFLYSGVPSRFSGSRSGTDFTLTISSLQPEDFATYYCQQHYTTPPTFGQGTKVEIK
notes: IgG
B5: MYT2254 (antibody, V domains shown)
VH: EVQLVESGGGLVQPGGSLRLSCAASGFNIRTQSIHWVRQAPGKGLEWIGDIFPIDGITDYADSVKGRFTISADTSKNTAYLQMNSLRAEDTAVYYCARHSWSWPSGMDYYLDYWGQGTLVTVSS
VL: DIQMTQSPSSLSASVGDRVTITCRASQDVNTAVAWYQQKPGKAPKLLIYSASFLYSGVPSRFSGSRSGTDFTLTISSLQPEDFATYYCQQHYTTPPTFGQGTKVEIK
notes: IgG
B6: MYT2252 (antibody, V domains shown)
VH: EVQLVESGGGLVQPGGSLRLSCAASGFNIRTQSIHWVRQAPGKGLEWIGDIFPIDGITDYADSVKGRFTISADTSKNTAYLQMNSLRAEDTAVYYCHRGSWSWPSGMDYYLDYWGQGTLVTVSS
VL: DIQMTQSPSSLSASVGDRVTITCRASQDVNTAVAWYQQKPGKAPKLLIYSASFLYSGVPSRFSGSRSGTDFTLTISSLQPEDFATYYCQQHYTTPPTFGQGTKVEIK
notes: IgG
B7: MYT4544 (antibody, V domains shown)
VH: EVQLVESGGGVVQPGRSLRLSCSASGFTFSGYGLSWVRQAPGKGLEWVAMISSGGSYTYYADSVKGRFAISRDNAKNTLFLQMDSLRPEDTGVYFCARHGDDPAWFAYWGQGTPVTVSS
VL: DIQLTQSPSSLSASVGDRVTITCSVSSSISSNNLHWYQQKPGKAPKPWIYGTSNLASGVPSRFSGSGSGTDYTFTISSLQPEDIATYYCQQWSSYPYHYTFGQGTKVEIK
notes: IgG
B8: MYT4546 (antibody, V domains shown)
VH: EVQLVESGGGVVQPGRSLRLSCSASGFTFSGYGLSWVRQAPGKGLEWVAMISSGGSYTYYADSVKGRFAISRDNAKNTLFLQMDSLRPEDTGVYFCARHGDDPAWFAYWGQGTPVTVSS
VL: DIQLTQSPSSLSASVGDRVTITCSVSSSISSNNLHWYQQKPGKAPKPWIYGTSNLASGVPSRFSGSGSGTDYTFTISSLQPEDIATYYCQQWSSYPYMYHFGQGTKVEIK
notes: IgG
B9: MYT4545 (antibody, V domains shown)
VH: EVQLVESGGGVVQPGRSLRLSCSASGFTFSGYGLSWVRQAPGKGLEWVAMISSGGSYTYYADSVKGRFAISRDNAKNTLFLQMDSLRPEDTGVYFCARHGDDPAWFAYWGQGTPVTVSS
VL: DIQLTQSPSSLSASVGDRVTITCSVSSSISSNNLHWYQQKPGKAPKPWIYGTSNLASGVPSRFSGSGSGTDYTFTISSLQPEDIATYYCQQWSSYPYMHTFGQGTKVEIK
notes: IgG

T1 sequence (P15328 25-233 limits assumed): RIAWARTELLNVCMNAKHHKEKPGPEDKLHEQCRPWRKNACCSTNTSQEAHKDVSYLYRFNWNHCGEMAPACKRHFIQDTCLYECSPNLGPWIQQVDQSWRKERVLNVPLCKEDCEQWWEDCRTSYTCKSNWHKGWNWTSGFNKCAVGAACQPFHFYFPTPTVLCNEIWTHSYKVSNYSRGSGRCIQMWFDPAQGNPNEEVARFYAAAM

The first assay has as its target T1, FOLR1 (R&D Systems, Cat #5646-FR) (human, UniProt P15328 25-233).
T1 construct: Bought soluble protein; also called Folate Receptor 1
Nature of the assay: BLI, IgG on anti-human Fc sensor. In general terms: Biolayer interferometry detects binding as a change in optical thickness at a sensor tip.
As to B1, the binding result is on record as “no binding (tested: 50 nM)”.
Same read-out and setting: the value for B2 was “no binding (tested: 50 nM)”; that for B3 was “no binding (tested: 50 nM)”; that for B4 was “no binding (tested: 50 nM)”.
Same read-out and setting: the value for B5 was “no binding (tested: 50 nM)”.
B6: the binding result is listed as “no binding (tested: 50 nM)”.

For another assay, the target named is T1, FOLR1 (R&D Systems, Cat #5646-FR). Nature of the assay: BLI, IgG on anti-human Fc sensor, 50 nM FOLR1.
On to B7, for which the binding result is reported as “binds”.
Still for that read-out and setting: the value for B8 was “binds”; that for B9 was “binds”.
